We go through six molecules from US9731036 (dated 2017).

First the molecules themselves.
B5: CEACAM1-Ig fusion protein (extracellular portion of CEACAM1 fused to the Fc portion of human IgG1) (Fc fusion, UniProt P13688 35-428, looked up)
chain: QLTTESMPFNVAEGKEVLLLVHNLPQQLFGYSWYKGERVDGNRQIVGYAIGTQQATPGPANSGRETIYPNASLLIQNVTQNDTGFYTLQVIKSDLVNEEATGQFHVYPELPKPSISSNNSNPVEDKDAVAFTCEPETQDTTYLWWINNQSLPVSPRLQLSNGNRTLTLLSVTRNDTGPYECEIQNPVSANRSDPVTLNVTYGPDTPTISPSDTYYRPGANLSLSCYAASNPPAQYSWLINGTFQQSTQELFIPNITVNNSGSYTCHANNSVTGCNRTTVKTIIVTELSPVVAKPQIKASKTTVTGDKDSVNLTCSTNDTGISIRWFFKNQSLPSSERMKLSQGNTTLSINPVKREDAGTYWCEVFNPISKNQSDPIMLNVNYNALPQENGLSPG
notes: extracellular domain; Made in COS-7 cells, purified on protein G. A silent nucleotide change (A885G, glycine 281 unchanged) removes a BamHI site; also called CCM1-Ig; soluble CEACAM1-Ig; not shown: Fc portion of human IgG1

The target in test [1] is T1, CEACAM1 protein (CD66a), whole, on cells (human, UniProt P13688 35-526).
T1 construct: whole, on cells; also called CCM1
T1 sequence (looked up): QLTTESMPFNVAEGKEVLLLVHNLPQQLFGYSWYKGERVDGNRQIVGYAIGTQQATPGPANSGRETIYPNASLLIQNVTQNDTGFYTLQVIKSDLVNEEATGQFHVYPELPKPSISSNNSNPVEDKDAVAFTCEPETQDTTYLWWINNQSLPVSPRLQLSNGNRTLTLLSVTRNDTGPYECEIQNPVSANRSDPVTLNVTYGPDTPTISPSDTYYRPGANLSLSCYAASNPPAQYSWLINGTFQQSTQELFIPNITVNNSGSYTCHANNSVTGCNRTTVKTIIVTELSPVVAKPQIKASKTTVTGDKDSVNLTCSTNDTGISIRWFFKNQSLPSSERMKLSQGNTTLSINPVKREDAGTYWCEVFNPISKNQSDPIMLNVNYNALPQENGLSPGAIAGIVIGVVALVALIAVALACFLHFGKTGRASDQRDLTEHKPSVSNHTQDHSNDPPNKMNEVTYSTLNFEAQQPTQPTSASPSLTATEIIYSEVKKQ
Put plainly: cell-based or functional assay.

Test [2] deals with B5. In words: flow cytometry on 721.221 transfectants. The source says: (§1) The staining of the secondary reagent FITC-conjugated goat anti-mouse F(ab_)2 of each cell type was used as background (_). The y-axis indicates the median fluorescence intensity (MFI). […] The y-axis indicates the median fluorescence intensity (MFI). […] The E:T cell ratio was 2:1.
(§2) Specificity of CEACAM1 Binding to CEACAM6 is Controlled by the Presence of Both 43R and 44Q Residues To determine whether both residues are required for binding, the amino acid residues in positions 43 and 44 in CEACAM1 (contains 43R44Q) and CEACAM6 (contains 43S44L) were mutated. Using site-directed mutagenesis in the CEACAM1, the 43R residue was changed to 43A (CCM1-R43A) and the 44Q residue was changed to 44L (CCM1-Q44L). In CEACAM6, the 43S was changed to 43R (CCM6-S43R) and 44L was changed to 44Q (CCM6-L44Q). All mutants were generated as described in Materials and Methods and stably transfected into 0.221 cells. The expression level was monitored by Kat4c mAb, and conformation was monitored by 5F4 mAb (FIG. 7A). […] Similar results were obtained when both 44Q and 43R residues in CEACAM1 were mutated (FIG. 5).
(In flow cytometry, cells or beads pass a laser one at a time.)

Test [3] concerns the target T2, CCM1-RQ43,44SL (CEACAM1 with S and L at positions 43 and 44 instead of R and Q) (human, UniProt P13688 35-526).
T2 construct: whole, on cells; also called CEACAM 1-RQ43,44SL
T2 sequence (looked up): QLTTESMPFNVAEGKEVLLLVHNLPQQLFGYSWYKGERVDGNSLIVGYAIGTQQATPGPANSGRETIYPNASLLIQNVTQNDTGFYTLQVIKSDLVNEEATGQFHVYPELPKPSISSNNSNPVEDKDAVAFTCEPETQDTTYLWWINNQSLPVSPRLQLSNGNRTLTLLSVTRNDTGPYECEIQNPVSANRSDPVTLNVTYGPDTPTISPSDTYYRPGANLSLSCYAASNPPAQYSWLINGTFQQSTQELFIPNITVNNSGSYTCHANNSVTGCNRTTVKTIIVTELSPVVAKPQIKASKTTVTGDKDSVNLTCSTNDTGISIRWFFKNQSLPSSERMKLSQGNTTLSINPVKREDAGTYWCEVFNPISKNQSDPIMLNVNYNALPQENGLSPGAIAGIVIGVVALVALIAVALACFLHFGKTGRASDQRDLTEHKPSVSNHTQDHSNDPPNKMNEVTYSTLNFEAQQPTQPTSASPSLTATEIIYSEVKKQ
In words: flow cytometry on 721.221 transfectants.
From the text: as §1, §2

The target in test [4] is T3, CCM1-R43A (CEACAM1 with 43R changed to 43A) (human, UniProt P13688 35-526).
T3 construct: whole, on cells; Expression lower than that of the other transfectants; also called CEACAM1-R43A
T3 sequence (looked up): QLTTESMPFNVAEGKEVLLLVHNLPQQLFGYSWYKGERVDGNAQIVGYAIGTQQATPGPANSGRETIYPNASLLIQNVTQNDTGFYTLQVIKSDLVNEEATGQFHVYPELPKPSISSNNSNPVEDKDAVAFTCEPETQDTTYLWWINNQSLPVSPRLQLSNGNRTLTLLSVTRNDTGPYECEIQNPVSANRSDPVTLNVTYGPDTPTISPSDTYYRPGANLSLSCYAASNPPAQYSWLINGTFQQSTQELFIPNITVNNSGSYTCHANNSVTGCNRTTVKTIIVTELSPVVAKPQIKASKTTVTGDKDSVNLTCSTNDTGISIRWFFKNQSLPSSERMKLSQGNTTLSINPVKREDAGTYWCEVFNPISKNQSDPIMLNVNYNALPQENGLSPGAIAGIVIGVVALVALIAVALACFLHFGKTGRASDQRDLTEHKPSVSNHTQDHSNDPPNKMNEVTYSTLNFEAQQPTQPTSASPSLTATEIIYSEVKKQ
In words: flow cytometry on 721.221 transfectants.
From the text: as §1, §2

Test [5] addresses T4, CCM1-Q44L (CEACAM1 with 44Q changed to 44L) (human, UniProt P13688 35-526).
T4 construct: whole, on cells; also called CEACAM1-Q44L
T4 sequence (looked up): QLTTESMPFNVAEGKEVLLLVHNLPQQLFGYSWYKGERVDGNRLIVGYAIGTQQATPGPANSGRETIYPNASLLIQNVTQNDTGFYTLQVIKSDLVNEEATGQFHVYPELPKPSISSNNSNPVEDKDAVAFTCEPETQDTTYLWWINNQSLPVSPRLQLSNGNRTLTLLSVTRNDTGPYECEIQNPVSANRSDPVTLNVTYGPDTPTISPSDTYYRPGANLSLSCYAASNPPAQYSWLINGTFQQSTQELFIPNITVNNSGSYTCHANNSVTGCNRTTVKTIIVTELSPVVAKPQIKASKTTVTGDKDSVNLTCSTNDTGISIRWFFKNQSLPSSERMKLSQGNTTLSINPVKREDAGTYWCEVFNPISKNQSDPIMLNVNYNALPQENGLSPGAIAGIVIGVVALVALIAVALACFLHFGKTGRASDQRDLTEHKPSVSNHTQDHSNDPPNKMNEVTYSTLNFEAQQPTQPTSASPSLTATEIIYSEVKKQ
Put plainly: flow cytometry on 721.221 transfectants.
From the text: as §1, §2

“mAb Kat4c (DakoCytomation), directed against CEACAM1, -5, -6, and -8 (antibody)” yielded an intracellular IFN-gamma staining of the NKT clone after cross-linking with Kat4c (fold above background) in test [1] of 4.5.

B1: CCM6-SL43,44RQ (CEACAM6 with R and Q at positions 43 and 44 instead of S and L) (receptor, human, UniProt P40199 35-320, looked up)
chain: KLTIESTPFNVAEGKEVLLLAHNLPQNRIGYSWYKGERVDGNRQIVGYVIGTQQATPGPAYSGRETIYPNASLLIQNVTQNDTGFYTLQVIKSDLVNEEATGQFHVYPELPKPSISSNNSNPVEDKDAVAFTCEPEVQNTTYLWWVNGQSLPVSPRLQLSNGNMTLTLLSVKRNDAGSYECEIQNPASANRSDPVTLNVLYGPDVPTISPSKANYRPGENLNLSCHAASNPPAQYSWFINGTFQQSTQELFIPNITVNNSGSYMCQAHNSATGLNRTTVTMITVSG
notes: whole, on cells; also called CEACAM6-SL43,44RQ
Consider B1, for which, in test [2], the binding result is recorded as “binds”.

B2: CCM6-L44Q (CEACAM6 with 44L changed to 44Q) (receptor, human, UniProt P40199 35-320, looked up)
chain: KLTIESTPFNVAEGKEVLLLAHNLPQNRIGYSWYKGERVDGNSQIVGYVIGTQQATPGPAYSGRETIYPNASLLIQNVTQNDTGFYTLQVIKSDLVNEEATGQFHVYPELPKPSISSNNSNPVEDKDAVAFTCEPEVQNTTYLWWVNGQSLPVSPRLQLSNGNMTLTLLSVKRNDAGSYECEIQNPASANRSDPVTLNVLYGPDVPTISPSKANYRPGENLNLSCHAASNPPAQYSWFINGTFQQSTQELFIPNITVNNSGSYMCQAHNSATGLNRTTVTMITVSG
notes: whole, on cells; also called CEACAM6-L44Q
As for B2, the binding result in test [2] is “no binding”.

B3: CCM6-S43R (CEACAM6 with 43S changed to 43R) (receptor, human, UniProt P40199 35-320, looked up)
chain: KLTIESTPFNVAEGKEVLLLAHNLPQNRIGYSWYKGERVDGNRLIVGYVIGTQQATPGPAYSGRETIYPNASLLIQNVTQNDTGFYTLQVIKSDLVNEEATGQFHVYPELPKPSISSNNSNPVEDKDAVAFTCEPEVQNTTYLWWVNGQSLPVSPRLQLSNGNMTLTLLSVKRNDAGSYECEIQNPASANRSDPVTLNVLYGPDVPTISPSKANYRPGENLNLSCHAASNPPAQYSWFINGTFQQSTQELFIPNITVNNSGSYMCQAHNSATGLNRTTVTMITVSG
notes: whole, on cells; also called CEACAM6-S43R
As to B3, the binding result in test [2] is “no binding”.

B4: CCM6-TailCCM1 (entire extracellular portion of CEACAM6 fused to the transmembrane and tail portions of CEACAM1) (receptor, human, UniProt P40199 35-320, looked up)
chain: KLTIESTPFNVAEGKEVLLLAHNLPQNRIGYSWYKGERVDGNSLIVGYVIGTQQATPGPAYSGRETIYPNASLLIQNVTQNDTGFYTLQVIKSDLVNEEATGQFHVYPELPKPSISSNNSNPVEDKDAVAFTCEPEVQNTTYLWWVNGQSLPVSPRLQLSNGNMTLTLLSVKRNDAGSYECEIQNPASANRSDPVTLNVLYGPDVPTISPSKANYRPGENLNLSCHAASNPPAQYSWFINGTFQQSTQELFIPNITVNNSGSYMCQAHNSATGLNRTTVTMITVSGAIAGIVIGVVALVALIAVALACFLHFGKTGRASDQRDLTEHKPSVSNHTQDHSNDPPNKMNEVTYSTLNFEAQQPTQPTSASPSLTATEIIYSEVKKQ
notes: extracellular domain;domain: transmembrane and tail portions
As for B4, the binding result in test [2] is recorded as “no binding”.
Consider B5, for which the binding result in test [3], in test [4] and in test [5] was “no binding” throughout.
